Measurements taken from paper PMC7287156.
Values joined by “and” are separate entries in the source; they are usually repeats but may differ in a detail not shown here. Identical values can stand only once.

Key:
[1] = molecular target: Catechol 1,2-dioxygenase from Pseudomonas stutzeri GOM2 (Pseudomonas stutzeri GOM2); experiment: native gel or EMSA; 10% acrylamide gel under non-denaturing conditions, no SDS or reducing agents; the dimer and trimer samples from SEC mixed and loaded together
[2] = molecular target: Catechol 1,2-dioxygenase from Pseudomonas stutzeri GOM2 (Pseudomonas stutzeri GOM2); experiment: SEC; HiLoad 26/60 Superdex 200, 50 mM glycine-NaOH pH 8.5, no NaCl; 500 uL of protein at 20 mg/mL; mass from calibration with standard proteins
[3] = molecular target: Catechol 1,2-dioxygenase from Pseudomonas stutzeri GOM2 (Pseudomonas stutzeri GOM2); experiment: SEC + other: dynamic light scattering; 50 mM glycine-NaOH pH 8.5 with 700 mM NaCl (seawater salinity); SEC on Superdex 200; DLS at 1 mg/mL, 40 °C

stoichiometry N [1]: 2 and 3
stoichiometry N [2]: 3
stoichiometry N [3]: 2
Substance: Catechol 1,2-dioxygenase from Pseudomonas stutzeri GOM2 (enzyme)
